For one assay, the target named is HLA-B*44:02 (Homo sapiens, UniProt P01889, A223V/A65T/A93T/A95T/D201E/D98Y/E176V/E187L/E204Q/E69K/G107R/H137Y/K202T/L105A/L119I/N104T/N87E/Q56L/Q94N/R106L/R155S/R180D/S101N/S121R/S35A/S48T/T118I/V36M/W191S/Y140D/Y91S). The experiment in a line: MHC binding assay (UV-ligand exchange, beta2m ELISA). The conditions noted are these: peptide exchange yield. The source says:
(§1) Candidate peptides for T cell based therapies according to the present invention were further tested for their MHC binding capacity (affinity). The individual peptide-MHC complexes were produced by UV-ligand exchange, where a UV-sensitive peptide is cleaved upon UV-irradiation, and exchanged with the peptide of interest as analyzed. Only peptide candidates that can effectively bind and stabilize the peptide-receptive MHC molecules prevent dissociation of the MHC complexes. To determine the yield of the exchange reaction, an ELISA was performed based on the detection of the light chain (β2m) of stabilized MHC complexes. The assay was performed as generally described in Rodenko et al. (Rodenko et al., 2006).
(§2) 96 well MAXISorp plates (NUNC) were coated over night with 2 ug/ml streptavidin in PBS at room temperature, washed 4× and blocked for 1 h at 37° C. in 2% BSA containing blocking buffer. Refolded HLA-A*02:01/MLA-001 monomers served as standards, covering the range of 15-500 ng/ml. Peptide-MHC monomers of the UV-exchange reaction were diluted 100-fold in blocking buffer. Samples were incubated for 1 h at 37° C., washed four times, incubated with 2 ug/ml HRP conjugated anti-β2m for 1h at 37° C., washed again and detected with TMB solution that is stopped with […]. Absorption was measured at 450 nm. Candidate peptides that show a high exchange yield (preferably higher than 50%, most preferred higher than 75%) are generally preferred for a generation and production of antibodies or fragments thereof, and/or T cell receptors or fragments thereof, as they show sufficient avidity to the MHC molecules and prevent dissociation of the MHC complexes.
(In general: An ELISA detects its analyte on a solid surface through an enzyme-linked reagent.)
Take “405 (NEIWTHSY; listed as Homo sapiens) [compound 405]”: the Peptide exchange result was ““+” (>10% = +)”.

For the substance “410 (SEDPSKLEA; listed as Homo sapiens) [compound 410]”, the Peptide exchange result is on record as ““+” (>10% = +)”.

With “402 (RELANDELIL; listed as Homo sapiens) [compound 402]”, the Peptide exchange entry is recorded as ““++” (>20% = ++)”.

Take “208 (TEVSRTEAI; listed as Homo sapiens) [compound 208]”: the Peptide exchange result is listed as ““++” (>20% = ++)”.

Consider “411 (LELPPILVY; listed as Homo sapiens) [compound 411]”, for which the Peptide exchange entry is recorded as ““+” (>10% = +)”.

“437 (TEAVVTNEL; listed as Homo sapiens) [compound 437]”: the Peptide exchange result is reported as ““++” (>20% = ++)”.

“434 (KEAIREHQM; listed as Homo sapiens) [compound 434]”: the Peptide exchange result is on record as ““++” (>20% = ++)”.

As for “414 (EDAALFKAW; listed as Homo sapiens) [compound 414]”, the Peptide exchange entry is on record as ““++” (>20% = ++)”.

“396 (REASGLLSL; listed as Homo sapiens) [compound 396]”: the Peptide exchange entry was ““+++” (>50 = +++)”.

As for “404 (NEAIMHQY; listed as Homo sapiens) [compound 404]”, the Peptide exchange entry was ““++” (>20% = ++)”.

Regarding “176 (AEIEPKADGSW; listed as Homo sapiens) [compound 176]”, the Peptide exchange result is recorded as ““+++” (>50 = +++)”.

For “55 (HETETRTTW; listed as Homo sapiens) [compound 55]”, the Peptide exchange entry is reported as ““+++” (>50 = +++)”.

Turning to “211 (EEKVFPSPLW; listed as Homo sapiens) [compound 211]”, the Peptide exchange entry is on record as ““+++” (>50 = +++)”.

Regarding “185 (AERQPGAASL; listed as Homo sapiens) [compound 185]”, the Peptide exchange entry is on record as ““++” (>20% = ++)”.

As for “409 (REFVLSKGDAGL; listed as Homo sapiens) [compound 409]”, the Peptide exchange result is ““+++” (>50 = +++)”.

Consider “58 (GEMEQKQL; listed as Homo sapiens) [compound 58]”, for which the Peptide exchange entry is recorded as ““++” (>20% = ++)”.

In the case of “398 (SFEQVVNELF; listed as Homo sapiens) [compound 398]”, the Peptide exchange result is ““++” (>20% = ++)”.

In the case of “418 (FEDAQGHIW; listed as Homo sapiens) [compound 418]”, the Peptide exchange result is on record as ““+++” (>50 = +++)”.

For the substance “52 (AEFLLRIFL; listed as Homo sapiens) [compound 52]”, the Peptide exchange entry is listed as ““++” (>20% = ++)”.

As to “203 (IEHSTQAQDTL; listed as Homo sapiens) [compound 203]”, the Peptide exchange entry is reported as ““++” (>20% = ++)”.

Turning to “186 (REGPEEPGL; listed as Homo sapiens) [compound 186]”, the Peptide exchange entry is recorded as ““++” (>20% = ++)”.

Take “432 (EEQYIAQF; listed as Homo sapiens) [compound 432]”: the Peptide exchange result is recorded as ““+” (>10% = +)”.

For the substance “209 (TEVSRTEL; listed as Homo sapiens) [compound 209]”, the Peptide exchange entry is recorded as ““++” (>20% = ++)”.

For the substance “421 (GEPATTVSL; listed as Homo sapiens) [compound 421]”, the Peptide exchange result is given as ““++” (>20% = ++)”.

For “399 (RELLHLVTL; listed as Homo sapiens) [compound 399]”, the Peptide exchange entry is reported as ““+++” (>50 = +++)”.

In the case of “423 (SEVPTGTTA; listed as Homo sapiens) [compound 423]”, the Peptide exchange entry is ““++” (>20% = ++)”.

Turning to “419 (HEFGHVLGL; listed as Homo sapiens) [compound 419]”, the Peptide exchange entry is listed as ““++” (>20% = ++)”.

In the case of “417 (AEHFSMIRA; listed as Homo sapiens) [compound 417]”, the Peptide exchange entry is ““++” (>20% = ++)”.

For “56 (SEPDTTASW; listed as Homo sapiens) [compound 56]”, the Peptide exchange entry is given as ““+++” (>50 = +++)”.

In the case of “415 (REEDAALFKAW; listed as Homo sapiens) [compound 415]”, the Peptide exchange entry is recorded as ““+++” (>50 = +++)”.

For the substance “178 (NELFRDGVNW; listed as Homo sapiens) [compound 178]”, the Peptide exchange result is given as ““+++” (>50 = +++)”.

As for “416 (SEEETRVVF; listed as Homo sapiens) [compound 416]”, the Peptide exchange entry is on record as ““+++” (>50 = +++)”.

Consider “179 (REAGDEFEL; listed as Homo sapiens) [compound 179]”, for which the Peptide exchange entry was ““++” (>20% = ++)”.

As to “408 (LEKALQVF; listed as Homo sapiens) [compound 408]”, the Peptide exchange result is reported as ““++” (>20% = ++)”.

On to “407 (AEHEGVSVL; listed as Homo sapiens) [compound 407]”, for which the Peptide exchange entry was ““++” (>20% = ++)”.

As for “406 (EDGRLVIEF; listed as Homo sapiens) [compound 406]”, the Peptide exchange entry was ““+” (>10% = +)”.

Regarding “195 (AEDKRHYSV; listed as Homo sapiens) [compound 195]”, the Peptide exchange result is on record as ““++” (>20% = ++)”.

As for “183 (YEKGIMQKV; listed as Homo sapiens) [compound 183]”, the Peptide exchange entry was ““++” (>20% = ++)”.

Take “201 (AETILTFHAF; listed as Homo sapiens) [compound 201]”: the Peptide exchange entry is listed as ““+++” (>50 = +++)”.

As to “54 (AEITITTQTGY; listed as Homo sapiens) [compound 54]”, the Peptide exchange entry is given as ““+++” (>50 = +++)”.

Take “175 (AEIEPKADG; listed as Homo sapiens) [compound 175]”: the Peptide exchange entry is recorded as ““++” (>20% = ++)”.

Consider “206 (SESVTSRTSY; listed as Homo sapiens) [compound 206]”, for which the Peptide exchange entry was ““+++” (>50 = +++)”.

On to “196 (REMPGGPVW; listed as Homo sapiens) [compound 196]”, for which the Peptide exchange result is ““+++” (>50 = +++)”.

For “424 (TEFPLFSAA; listed as Homo sapiens) [compound 424]”, the Peptide exchange entry is ““+” (>10% = +)”.

As to “420 (FESHSTVSA; listed as Homo sapiens) [compound 420]”, the Peptide exchange entry is listed as ““+” (>10% = +)”.

For the substance “214 (VEQTRAGSLL; listed as Homo sapiens) [compound 214]”, the Peptide exchange entry is recorded as ““++” (>20% = ++)”.

On to “433 (SDSQVRAF; listed as Homo sapiens) [compound 433]”, for which the Peptide exchange result is on record as ““+” (>10% = +)”.

Consider “189 (KEFLFNMY; listed as Homo sapiens) [compound 189]”, for which the Peptide exchange result was ““++” (>20% = ++)”.

Consider “400 (GEIEIHLL; listed as Homo sapiens) [compound 400]”, for which the Peptide exchange entry is ““+” (>10% = +)”.

“429 (REKFIASVI; listed as Homo sapiens) [compound 429]”: the Peptide exchange result was ““++” (>20% = ++)”.

“184 (AELEALTDLW; listed as Homo sapiens) [compound 184]”: the Peptide exchange result is ““+++” (>50 = +++)”.

Take “177 (TEVGTMNLF; listed as Homo sapiens) [compound 177]”: the Peptide exchange result is given as ““+++” (>50 = +++)”.

Take “194 (KEVDPTSHSY; listed as Homo sapiens) [compound 194]”: the Peptide exchange result was ““++” (>20% = ++)”.

“210 (VEAADIFQNF; listed as Homo sapiens) [compound 210]”: the Peptide exchange entry is recorded as ““+++” (>50 = +++)”.

As for “188 (AEFAKKQPWW; listed as Homo sapiens) [compound 188]”, the Peptide exchange result is recorded as ““+++” (>50 = +++)”.

As to “193 (LEAQQEAL; listed as Homo sapiens) [compound 193]”, the Peptide exchange entry is listed as ““++” (>20% = ++)”.

The next assay addresses HLA-B*07:02 (Homo sapiens, UniProt P01889). Described as above. The conditions noted are these: peptide exchange yield.
Source text: as §1, §2
Turning to “369 (FPHSEMTTV; listed as Homo sapiens) [compound 369]”, the Peptide exchange result is on record as ““+++” (>50 = +++)”.

As to “380 (IPTYGRTF; listed as Homo sapiens) [compound 380]”, the Peptide exchange result is recorded as ““+++” (>50 = +++)”.

Consider “330 (FPFVTGSTEM; listed as Homo sapiens) [compound 330]”, for which the Peptide exchange result was ““++” (>20% = ++)”.

In the case of “375 (AAASPLLLL; listed as Homo sapiens) [compound 375]”, the Peptide exchange result was ““++” (>20% = ++)”.

As to “360 (SPSVSSNTY; listed as Homo sapiens) [compound 360]”, the Peptide exchange entry is on record as ““++” (>20% = ++)”.

As for “345 (LPTSESLVSF; listed as Homo sapiens) [compound 345]”, the Peptide exchange result is reported as ““++” (>20% = ++)”.

With “33 (SPTFHLTL; listed as Homo sapiens) [compound 33]”, the Peptide exchange entry is listed as ““+++” (>50 = +++)”.

As for “318 (FPNRLNLEA; listed as Homo sapiens) [compound 318]”, the Peptide exchange result was ““+++” (>50 = +++)”.

These data come from patent publication US20210340217A1, “NOVEL PEPTIDES AND COMBINATION OF PEPTIDES FOR USE IN IMMUNOTHERAPY AGAINST OVARIAN CANCER AND OTHER CANCERS” (Immatics Biotechnologies GmbH, priority 2017, published 2021).
